Measured values from patent publication US20220193132A1 (NATIONAL RESEARCH COUNCIL OF CANADA, published 2022).

B1: 13.1.2 mIgG1 (antibody, V domains shown)
VH: QVQLVESGGGVVQPGRSLRLSCAASGFTFSSYGMHWVRQAPGKGLEWVAVIWYDGSNKYYVDSVKGRFTISRDNSKNTLYLQMNSLRAEDTAVYYCARDGWQQLAPFDYWGQGTLVTVSS
VL: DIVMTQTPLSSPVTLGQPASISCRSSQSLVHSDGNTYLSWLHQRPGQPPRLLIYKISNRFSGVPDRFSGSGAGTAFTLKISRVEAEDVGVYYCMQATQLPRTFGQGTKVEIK
B2: 13.1.2 mIgG2a (antibody, V domains shown)
VH: B1 VH
VL: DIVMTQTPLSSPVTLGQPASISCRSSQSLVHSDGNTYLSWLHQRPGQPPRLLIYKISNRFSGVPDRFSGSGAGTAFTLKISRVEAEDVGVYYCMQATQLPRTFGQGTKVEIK

Assays:
[1] = molecular target: T1, EGFRvIII, full length, overexpressed on glioblastoma cells (human, UniProt P00533 298-623); experiment: flow cytometry dose-response on U87MG-EGFRvIII cells, apparent Kd
T1 construct: Cells overexpress full length EGFRvIII (deletion of exons 2-7 of EGFR); Cell line (U87MG or DKMG) is named under assay; also called U87MG-EGFRvIII; U87vIII
Method: (§1) Prior to analysis, cells were plated such that they were not more than 80% confluent on the day of analysis. Unless otherwise stated, all media are kept are 4° C. and all incubations are performed on wet ice. Cells were washed in PBS, harvested by the addition of cell dissociation buffer (Sigma), centrifuged and resuspended in complete medium at a cell density of 2×10⁶ cells/mL. Fifty μL/well of cells were distributed in a polypropylene v-bottom 96 well plate and serial 1/3 dilutions of purified mAbs starting at 100 nM were added and incubated for 2 hours. […] Cells were washed and re-suspended in medium containing Propidium iodide to exclude dead cells from analysis. Samples were filtered through a 60 μm nylon mesh filter plate (Millipore, Ireland) to remove cell aggregates. Flow cytometry analyses were performed on 2,000 viable single-cells events gated on forward scattering, side scattering parameters and propidium iodide dye exclusion using a BD-LSRFortessa flow cytometer (Becton-Dickinson Biosciences, CA, USA) and a standard filter set using BD FACSDiva™ acquisition software, according to manufacturer's instructions.
(§2) Specific detection of antibody binding was calculated as the mean fluorescent intensity of binding to each primary antibody after background level subtraction of the mean fluorescent intensity of binding of mouse IgG control. The data were analyzed with GraphPad Prism v 6.0 software using one-site specific binding with Hill slope non-linear regression curve fit model to determine Bmax (maximum specific binding) and Kdₐₚₚ (concentration needed to achieve a half-maximum binding at equilibrium) for each mAb tested.

[2] = molecular target: T2, recombinant human wild type EGFR protein (extracellular domain), denatured (human, UniProt P00533 25-645); experiment: ELISA on recombinant antigen
T2 construct: Same protein as m23 after 95 C for 5 min in PBS with 40 mM DTT (denatured, reduced); also called wt EGFR Denatured
Method: (§3) Pre- and post-immune sera titers of animals were assessed by ELISA on recombinant EGFRvIII protein. Unless otherwise stated, all incubations were performed at room temperature. […] Microplates were washed three times in PBS and blocked for 30 min with PBS containing 1% bovine serum albumin (BSA, Sigma Cat #A7030). Blocking buffer was removed and 25 μl of serial dilutions of sera samples were added. […] After a 1-h incubation, microplates were washed 4 times and 25 μl of p-nitrophenyl phosphate (pNPP) substrate (Sigma-Aldrich Canada Co., Oakville, ON) at 1 mg/ml in carbonate buffer at pH 9.6 was added and further incubated for 30 min.
(§4) Antigens at 1-2 mg/ml were incubated at 95° C. for 5 min in PBS containing DTT at a final concentration of 40 mM. They were then incubated on ice for 5 min and diluted at their final coating concentration for ELISA purpose.
(§5) ELISA was performed as described above (serum titer determination) using 25 μl of mAb supernatant (Exp 1) or purified mAb at 1 μg/ml (Exp 2).

[3] = molecular target: T3, recombinant human wild type EGFR protein (extracellular domain), native (human, UniProt P00533 25-645); experiment: ELISA on recombinant antigen
T3 construct: also called wt EGFR; EGFR WT
Method: as §3, §4, §5

[4] = molecular target: T2, recombinant human wild type EGFR …; experiment: ELISA Exp 1, mAb supernatant
Method: as §3, §4, §5

[5] = molecular target: T3, recombinant human wild type EGFR …; experiment: ELISA Exp 1, mAb supernatant
Method: as §3, §4, §5

[6] = molecular target: T4, recombinant human EGFRvIII protein (extracellular domain), native (human, UniProt P00533 298-623); experiment: ELISA Exp 1, mAb supernatant
T4 construct: also called hEGFRvIII
Method: as §3, §4, §5

[7] = molecular target: T5, recombinant human EGFRvIII protein (extracellular domain), denatured (human, UniProt P00533 298-623); experiment: ELISA Exp 1, mAb supernatant
T5 construct: Same protein as m21 after 95 C for 5 min in PBS with 40 mM DTT (denatured, reduced); also called EGFRvIII Denatured
Method: as §3, §4, §5

[8] = molecular target: T2, recombinant human wild type EGFR …; experiment: ELISA Exp 2, purified mAb 1 ug/ml;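 also: ELISA of purified mAb binding to plate-coated antigen, native or heat/DTT-denatured, with pNPP substrate developed for 30 min and incubations at room temperature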
Method: as §3, §4, §5

[9] = molecular target: T3, recombinant human wild type EGFR …; experiment: ELISA Exp 2, purified mAb 1 ug/ml;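 also: ELISA of purified mAb binding to plate-coated antigen, native or heat/DTT-denatured, with pNPP substrate developed for 30 min and incubations at room temperature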
Method: as §3, §4, §5

[10] = molecular target: T4, recombinant human EGFRvIII protein …; experiment: ELISA Exp 2, purified mAb 1 ug/ml;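 also: ELISA of purified mAb binding to plate-coated antigen, native or heat/DTT-denatured, with pNPP substrate developed for 30 min and incubations at room temperature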
Method: as §3, §4, §5

[11] = molecular target: T5, recombinant human EGFRvIII protein …; experiment: ELISA Exp 2, purified mAb 1 ug/ml;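 also: ELISA of purified mAb binding to plate-coated antigen, native or heat/DTT-denatured, with pNPP substrate developed for 30 min and incubations at room temperature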
Method: as §3, §4, §5

[12] = molecular target: T6, wild type human EGFR, full length, overexpressed on U87MG cells (human, UniProt P00533 25-1210); experiment: flow cytometry dose-response, U87MG-EGFRwt cells
T6 construct: also called U87MG-EGFR wt; U87 WT
Method: as §1, §2

Row | Binder | Kd [1] [nM] | binding result [2] | binding result [3] | ELISA absorbance 405 nm [4] [A405] | ELISA absorbance 405 nm [5] [A405] | ELISA absorbance 405 nm [6] [A405] | ELISA absorbance 405 nm [7] [A405] | ELISA absorbance 405 nm [8] [A405] | ELISA absorbance 405 nm [9] [A405] | ELISA absorbance 405 nm [10] [A405] | ELISA absorbance 405 nm [11] [A405] | binding result [12]
1 | B1 | 4.3 | no binding | no binding | 0.003 | 0.011 | 1.1 | 1.91 | 0.005 | 0.003 | 1.67 | 1.71 | no binding (tested: 100 nM highest concentration)
2 | B2 | 4.2 | no binding | no binding | 0.007 | 0.009 | 1.29 | 2.09 | 0.002 | 0.003 | 1.49 | 1.5 | no binding (tested: 100 nM highest concentration)
